Experiments:
CD79b-AF647 = assay: flow cytometry, CAR-transduced primary human T cells stained with recombinant human CD79b extracellular domain-AF647
[1] = target: recombinant human CD79b isoform-2 (short) (human) (UniProt P40259); assay: SPR, Biacore 8k; scFv-Fc captured by anti-human Fc, CD79b as analyte; 1:1 Langmuir

Sequence of CD79b-AF647 (chain, as listed by the source limits assumed): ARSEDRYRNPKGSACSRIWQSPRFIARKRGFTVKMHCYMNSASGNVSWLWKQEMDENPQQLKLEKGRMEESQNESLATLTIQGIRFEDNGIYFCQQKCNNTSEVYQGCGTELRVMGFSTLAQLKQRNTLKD

| aCD79b CAR+ (frequency of CAR+ cells) (CD79b-AF647) | Kd [1] [nM] | Binder |
| --- | --- | --- |
| 0.048 |  | SN8 #51 (protein, part only; not given: hinge, transmembrane and signaling domains, part only) CAR polypeptide, part: DIVLTQSPDSLAVSLGERATINCKASQSVDYEGDSFLNWYQQKPGQPPKLLIYAASNLESGVPDRFSGSGSGTDFTLTISSLQAEDVAVYYCQQSNEDPLTFGGGTKVEIKGGSEGKSSGSGSESKSTGGSQVQLVQSGAEVKKPGASVKVSCKASGYTFTGYWIEWVRQAPGQGLEWMGEILPGGGDTNYNQKFQGKVTFTRDTSTSTAYMELSSLRSEDTAVYYCARRVPVYFDYWGQGTLVTVSS |
|  | 11.5 | CD9W23 LH scFv-Fc (Fc fusion, not shown: a dimerising Fc or GST) DIVLTQSPDSLAVSLGERATINCKASQSVDYDGDSFLNWYQQKPGQPPKLLIYAASNLESGVPDRFSGSGSGTDFTLTISSLQAEDVAVYYCQQSNEDPLTFGGGTKVEIKGGSEGKSSGSGSESKSTGGSQVQLVQSGAEVKKPGASVKVSCKASGYTFTGYWIEWVRQRPGQGLEWMGEILPGGGDTNYNQKFQGKVTFTRDTSTSTAYMELSSLRSEDTAVYYCARRVPVYFDYWGQGTLVTVSS |
|  | 6.9 | CD9W59 LH scFv-Fc (Fc fusion, not shown: a dimerising Fc or GST) DIVLTQSPDSLAVSLGERATINCKASQSVDYDGDSFLNWYQQKPGQPPKLLIYAASNLESGVPDRFSGSGSGTDFTLTISSLQAEDVAVYYCQQSNEDPLTFGGGTKVEIKGGSEGKSSGSGSESKSTGGSQVQLVQSGAEVKKPGASVKVSCKASGYTFTGYWIEWVRQAPGQGLEWMGEILPGGGDTNYNQKFQGKVTFTRDTSTSTVYMELSSLRSEDTAVYYCARRVPVYFDYWGQGTLVTVSS |
